From paper PMC6800434, “Assessment of glucagon receptor occupancy by Positron Emission Tomography in non-human primates” (Scientific Reports, 2019)
Where “and” joins values, the source holds several entries; their conditions need not be identical. Equal entries are not always repeated. Positions of bridges follow the written chain, without caps; N, C: chain ends. Non-standard residues stand in square brackets, D forms with d. Residues, ends and D or L forms follow the SMILES beside them. *: point of attachment. DO3A(CH2CH2SO2CH2CH2) = O=C(O)CN1CCN(CCS(=O)(=O)CC*)CCN(CC(=O)O)CCN(CC(=O)O)CC1; Ala(4-thiazolyl) = N[C@@H](Cc1cscn1)C(=O)O

What was measured:
[1] = In vivo metabolic stability in venous plasma (radio-HPLC); set-up: species or system cynomolgus monkeys; settings: NHP in vivo, n = 3
Protocol: For NHP 5–7, venous blood samples were taken at 5, 30 and 60 min for assessment of in vivo metabolic stability of [^68Ga]Ga-DO3A-S01-GCG, using HPLC methods described below. The percentage of intact [^68Ga]Ga-DO3A-S01-GCG was plotted against time from administration and fitted to a mono-exponential function.
Blood samples were centrifuged at 4000 rpm for 2 minutes at 4 °C (Beckman Allegra X-22R Centrifuge, Palo Alto, USA). From the plasma, 0.5 ml was taken and an equal volume of acetonitrile was added to precipitate the proteins. The mixture was centrifuged at 13200 rpm at 4 °C for 1 min (Eppendorf 5415 R centrifuge, Eppendorf AG, Hamburg, Germany). The supernatant was filtered through a 0.2 μm nylon membrane (Corning Incorporated, Corning, NY, USA) by centrifugation at 13200 rpm at 4 °C for 1 min. 500 µl of the filtered supernatant was diluted with 1500 µl H2O; thereafter, 30 µl of 0.01 mM unlabelled DO3A-S01-GCG was added to the mixture. The sample preparation recovery was determined by measuring the radioactivity in the plasma, filters and pellet.
HPLC analysis was performed using a binary pump system (Gilson, Middleton, USA). The sample (1.8 ml) was injected using an automated solid phase extraction controller (ASPEC Gilson) connected to a dilutor (Gilson). The separation was performed on an Xbridge Prep BEH130 C18 (peptide separation technology) 250 mm × 10 mm, 5 µm with a 10 × 10 mm C18 security guard from the same supplier. The HPLC system was operated at a flow rate of 6 ml/min. The mobile phase consisted of 0.1% TFA in MilliQ: 0.1% TFA in Acetonitrile. Gradient elution mode was used for the separation (Gradient: 0–7 min: 5–70%, 7–12 min: 70%, 12–13 min: 70–5%, 13–15 min: 5%).
A second method was developed with a lesser gradient, to determine if any metabolites were co-eluting with the DO3A-S01-GCG peak. A UV detector (Gilson) was used to detect unlabelled DO3A-S01-GCG at 220 nm. […] Six fractions were collected, and the radioactivity in the fractions was measured by a well-type scintillation counter. […]

[2] = Human predicted radiation dosimetry extrapolated from NHP biodistribution (OLINDA/EXM 1.1)
Protocol: The predicted dosimetry of [^68Ga]Ga-DO3A-S01-GCG in human males was estimated based on the in vivo biodistribution in NHPs as captured by dynamic PET examinations. The baseline PET examinations in NHP 2–7 (n=6) were averaged for the dosimetry analysis. […] However, the uptake in the brain in NHP is likely negligible based on observations in rat (5) as well as a whole-body PET/CT examination performed on NHP1 90–120 minutes post [^68Ga]Ga-DO3A-S01-GCG administration.
The dosimetry calculations were performed as described previously for [^68Ga]Ga-DO3A-VS-Cys^40-Exendin4[4] and [^68Ga]Ga-DO3A-S01-GCG in rat[5].
In brief, dynamic NHP organ uptake as measured by PET and expressed as SUV was normalised to that of human organs (using tissue weights of whole-body adult reference phantoms). The decay-corrected and normalized SUVs were back-corrected to count rates to calculate the actual radiation burden in each tissue. The tissue residence times (MBq-h/MBq) were assessed by trapezoidal approximation of the un-decay corrected human SUV biodistribution data. The tissue washout from the last time point (90 minutes) until infinity was estimated by a single mono-exponential fit.
The estimation of the absorbed dose was performed by the OLINDA/EXM 1.1 software, where the calculations were based on the adult reference male or female phantoms to obtain the absorbed dose estimate in humans (ICRP60). The organ specific doses are reported as mGy/MBq (effective dose as mSv/MBq). The amount of MBq that can be safely administered annually (MBq/year) was calculated for each organ as well as the effective dose, by dividing the limiting dose (10 mSv/year for the effective dose, 150 mGy/year for all tissues except for red marrow with 50 mGy/year) by the dose (mGy/MBq or mSv/MBq).

rat spleen sections = experiment: In vitro autoradiography of spleen sections; assay type: binding, Sprague Dawley rat; settings: 10 µM GCG or 1 µm DO3A-S01-GCG precursor, 60 min RT, n = 3
Protocol: (§1) Splenic binding of [^68Ga]Ga-DO3A-S01-GCG was previously observed in rat in vivo[5]. This assay was performed to elucidate if splenic binding in human and NHP in vivo would be expected.
(§2) Spleen tissue was collected post-mortem from the NHP and Sprague Dawley rat. Biopsies from donor human spleen were obtained from Uppsala Biobank (sample collection 827) and approved by local ethical review board (Drn 2016/465).
(§3) The splenic biopsies were processed to 10 µm frozen tissue sections by a cryotome. The sections were pre-incubated in phosphate-buffered saline (PBS) (pH 7.4, 1% Bovine Serum Albumin (BSA)) for 10 min at room temperature (RT). Then, the sections were incubated with 5 nM [^68Ga]Ga-DO3A-S01-GCG in […] PBS (pH 7.4, 1% BSA), either alone or in the presence of 10 µM GCG or 1 µm DO3A-S01-GCG precursor for 60 min at RT.
(§4) After incubation, the sections were washed three times, first with assay buffer (PBS pH 7.4 1% BSA) and then twice with PBS for 1 minute. Sections were carefully dried at 37 °C and then exposed against a digital phosphorimager plate, together with a 20 µl reference from the buffer calibrated against a gamma-counter to enable quantification to fmol bound radioligand/mm^3. The phosphorimager plates were scanned using a Cyclone Plus Phosphor imager (Perkin Elmer) at 600 dpi, and the resulting autoradiograms analysed by ImageJ (NIH, Bethesda). […]

NHP spleen sections = experiment: In vitro autoradiography of spleen sections; assay type: binding; settings: 10 µM GCG or 1 µm DO3A-S01-GCG precursor, 60 min RT, n = 3
Protocol: as §1, §2, §3, §4

human spleen sections = experiment: In vitro autoradiography of spleen sections; assay type: binding; settings: 10 µM GCG or 1 µm DO3A-S01-GCG precursor, 60 min RT, n = 3
Protocol: as §1, §2, §3, §4

[3] = extrapolated from NHP 2-7 baseline PET (n = 6)

Molecule | Intact radioligand in venous plasma ([1]; 5 minutes after administration) | Intact radioligand in venous plasma ([1]; 30 minutes after administration) | Intact radioligand in venous plasma ([1]; 60 minutes after administration) | Human predicted absorbed dose, heart wall (myocardium) [2, 3] | Human predicted absorbed dose, kidneys [2, 3] | Human predicted absorbed dose, liver [2, 3] | Human predicted absorbed dose, red marrow [2, 3] | Human predicted effective dose [2, 3] | Annual limit of administered radioactivity, effective dose limiting ([2]; limit 10 mSv/year) | Annual exposure limit from red marrow absorbed dose ([2]; limit 50 mGy/year) | Annual administration allowed by critical organ kidney ([2]; limit 150 mGy/year) | Blocking of [68Ga]Ga-DO3A-S01-GCG binding in rat spleen sections by co-incubation (rat spleen sections) | Effect of co-incubation on [68Ga]Ga-DO3A-S01-GCG binding in NHP spleen sections (NHP spleen sections) | Effect of co-incubation on [68Ga]Ga-DO3A-S01-GCG binding in human spleen sections (human spleen sections)
CC[C@H](C)[C@H](NC(=O)[C@H](Cc1ccccc1)NC(=O)[C@H](CCC(=O)O)NC(=O)[C@@H]1CCCCNC(=O)CC[C@H](NC(=O)[C@H](CC(=O)O)NC(=O)[C@H](CC(C)C)NC(=O)[C@H](CCC(N)=O)NC(=O)[C@H](CCCCN)NC(=O)[C@H](CO)NC(=O)[C@H](Cc2ccc(O)cc2)NC(=O)[C@H](CC(=O)O)NC(=O)[C@H](CO)NC(=O)[C@@H](NC(=O)[C@H](Cc2ccccc2)NC(=O)[C@@H](NC(=O)CNC(=O)[C@H](CCC(N)=O)NC(=O)[C@@H](CO)NC(=O)[C@@H](N)Cc2cscn2)[C@@H](C)O)[C@@H](C)O)C(=O)N[C@@H](CCC(N)=O)C(=O)N[C@@H](CCCNC(=N)N)C(=O)N[C@@H](C)C(=O)N1)C(=O)N[C@@H](CCC(=O)O)C(=O)N[C@@H](Cc1c[nH]c2ccccc12)C(=O)N[C@@H](CC(C)C)C(=O)N[C@@H](CC(C)C)C(=O)N[C@@H](C)C(=O)N[C@H](C(=O)NCC(=O)N1CCC[C@H]1C(=O)N[C@@H](CCC(=O)O)C(=O)N[C@@H](CO)C(=O)NCC(=O)N[C@@H](C)C(=O)N1CCC[C@H]1C(=O)N1CCC[C@H]1C(=O)N1CCC[C@H]1C(=O)N[C@@H](CO)C(=O)N[C@@H](CSCCS(=O)(=O)CCN1CCN(CC(=O)O)CCN(CC(=O)O)CCN(CC(=O)O)CC1)C(N)=O)[C@@H](C)O [[^68Ga]Ga-DO3A-S01-GCG, metal not drawn] (H-[Ala(4-thiazolyl)][dS]QGTFTSDYSKQLDEQRAKEFIEWLLATGPESGAPPPSC(DO3A(CH2CH2SO2CH2CH2))-NH2; lactam 16-20) | 95.9 ± 1.2% | 89.0 ± 2.7% | 80.3 ± 3.3% | 0.10 mGy/MBq | 0.29 mGy/MBq | 0.049 mGy/MBq | 0.039 mGy/MBq | 20.6 µSv/MBq | 485 MBq | > 1000 MBq | 519 MBq and > 500 MBq |  |  | 
glucagon |  |  |  |  |  |  |  |  |  |  |  | could be blocked | not affected | not affected
